Numbering of substitutions follows the chain as printed.
T1: soluble mouse Fc-human NKG2D dimer (human, UniProt P26718 78-216, limits assumed)
T1 construct: also called NKG2D-mFc; human NKG2D fused to a mouse Fc
T1 sequence (looked up): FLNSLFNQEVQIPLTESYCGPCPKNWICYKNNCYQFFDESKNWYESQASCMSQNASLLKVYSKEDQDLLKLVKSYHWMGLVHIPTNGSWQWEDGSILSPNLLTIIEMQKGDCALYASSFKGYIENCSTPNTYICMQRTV

T2: human CEACAM5 on cells (human, UniProt P06731 35-685)
T2 construct: tumour cell lines with endogenous CEACAM5, or B16F10 engineered to express hCEACAM5; also called CEACAM5 on MKN-45, HPAF-II, SK-CO-1, LoVo, BxPC-3, Kato-III, LS-174T, ZR-75-30; hCEACAM5-B16F10
T2 sequence: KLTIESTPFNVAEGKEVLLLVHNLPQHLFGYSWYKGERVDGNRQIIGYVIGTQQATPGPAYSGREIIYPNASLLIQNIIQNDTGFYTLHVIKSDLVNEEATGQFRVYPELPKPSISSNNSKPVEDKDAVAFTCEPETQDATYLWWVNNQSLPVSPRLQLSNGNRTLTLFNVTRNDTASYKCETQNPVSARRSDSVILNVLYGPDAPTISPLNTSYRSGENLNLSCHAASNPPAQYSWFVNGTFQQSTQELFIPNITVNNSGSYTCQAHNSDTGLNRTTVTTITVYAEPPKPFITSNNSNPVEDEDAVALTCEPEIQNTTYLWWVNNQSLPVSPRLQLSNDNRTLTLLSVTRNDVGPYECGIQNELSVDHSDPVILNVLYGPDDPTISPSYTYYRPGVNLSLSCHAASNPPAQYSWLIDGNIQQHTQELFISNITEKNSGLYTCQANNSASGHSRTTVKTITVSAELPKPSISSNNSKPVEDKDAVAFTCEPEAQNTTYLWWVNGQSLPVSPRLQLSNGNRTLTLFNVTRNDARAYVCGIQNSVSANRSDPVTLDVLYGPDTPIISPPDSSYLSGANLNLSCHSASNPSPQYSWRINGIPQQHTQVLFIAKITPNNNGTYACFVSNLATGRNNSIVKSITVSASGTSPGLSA

T3: human NKG2D-Fc (human, UniProt P26718 73-216)
T3 construct: extracellular domain; also called recombinant human NKG2D-Fc; NKG2D-Fc-biotin
T3 sequence (looked up): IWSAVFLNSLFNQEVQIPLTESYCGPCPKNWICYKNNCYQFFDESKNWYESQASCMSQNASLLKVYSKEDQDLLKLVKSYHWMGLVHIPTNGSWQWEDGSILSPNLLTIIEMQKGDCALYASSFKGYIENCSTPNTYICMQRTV

T4: mouse NKG2D-Fc (mouse, UniProt O54709 90-232)
T4 construct: extracellular domain; also called Mouse NKG2D-Fc-biotin
T4 sequence (looked up): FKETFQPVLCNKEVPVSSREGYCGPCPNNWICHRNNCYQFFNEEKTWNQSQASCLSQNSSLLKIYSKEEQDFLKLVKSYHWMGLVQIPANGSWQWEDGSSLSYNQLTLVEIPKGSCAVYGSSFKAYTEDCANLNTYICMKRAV

T5: cynomolgus NKG2D-Fc (cynomolgus monkey, UniProt P61252 73-216)
T5 construct: extracellular domain
T5 sequence (looked up): T3 sequence (looked up) with D43N, T133I

B1: ADI-29379 (E79) (antibody, V domains shown)
VH: QVQLVQSGAEVKKPGASVKVSCKASGYTFTSYYMHWVRQAPGQGLEWMGIINPSGGSTSYAQKFQGRVTMTRDTSTSTVYMELSSLRSEDTAVYYCARGAPNYGDTTHDYYYMDVWGKGTTVTVSS
VL: EIVMTQSPATLSVSPGERATLSCRASQSVSSNLAWYQQKPGQAPRLLIYGASTRATGIPARFSGSGSGTEFTLTISSLQSEDFAVYYCQQYDDWPFTFGGGTKVEIK
B2: ADI-29378 (E78) (antibody, V domains shown)
VH: QVQLVQSGAEVKKPGASVKVSCKASGYTFTSYYMHWVRQAPGQGLEWMGIINPSGGSTSYAQKFQGRVTMTRDTSTSTVYMELSSLRSEDTAVYYCAREGAGFAYGMDYYYMDVWGKGTTVTVSS
VL: B1 VL with M4L, V13L, N32Y, G50D, T53N, E70D, Q79E, S80P, Y91S, D93N
B3: AB0755 (antibody, V domains shown)
VH: QVQLVQSGAEVKKPGASVKVSCKASGYTFTAYTIHWVRQAPGQGLEWMGYINPSSGYTEYNQKFKDRTTLTADTSIPTAYMELSRLRSDDTAVYYCTREGGLLWFDYWGQGTLVTVSS
VL: DIVMTQSPDSLAVSLGERATINCKSSHSLLYGNFQNNYLAWYQQKPGQPPKLLIYWASTRESGVPDRFSGSGSGTDFTLTISSLQAEDVAVYYCQQYYSYPYTFGGGTKLEIK
notes: the scFv entries carry the stabilising cysteines, which the mAb may lack; also called mAb corresponding to AB0264
B4: ADI-27744 (A44) (antibody, V domains shown)
VH: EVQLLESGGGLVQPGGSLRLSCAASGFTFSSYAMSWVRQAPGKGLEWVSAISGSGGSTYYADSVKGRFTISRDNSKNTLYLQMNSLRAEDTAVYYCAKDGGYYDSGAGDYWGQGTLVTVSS
VL: DIQMTQSPSSVSASVGDRVTITCRASQGIDSWLAWYQQKPGKAPKLLIYAASSLQSGVPSRFSGSGSGTDFTLTISSLQPEDFATYYCQQGVSYPRTFGGGTKVEIK
B5: ADI-27749 (A49) (antibody, V domains shown)
VH: EVQLVESGGGLVKPGGSLRLSCAASGFTFSSYSMNWVRQAPGKGLEWVSSISSSSSYIYYADSVKGRFTISRDNAKNSLYLQMNSLRAEDTAVYYCARGAPMGAAAGWFDPWGQGTLVTVSS
VL: B4 VL with D30S, Y94F
B6: ADI-27705 (antibody, V domains shown)
VH: QVQLQQWGAGLLKPSETLSLTCAVYGGSFSGYYWSWIRQPPGKGLEWIGEIDHSGSTNYNPSLKSRVTISVDTSKNQFSLKLSSVTAADTAVYYCARARGPWSFDPWGQGTLVTVSS
VL: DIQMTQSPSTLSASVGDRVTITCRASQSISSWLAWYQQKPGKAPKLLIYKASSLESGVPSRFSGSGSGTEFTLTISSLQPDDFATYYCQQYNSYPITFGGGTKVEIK
notes: named as a single clone only on the drawing sheets
B7: ADI-27724 (antibody, V domains shown)
VH: B6 VH
VL: not shown
notes: as for B6
B8: ADI-27741 (antibody, V domains shown)
VH: B6 VH
VL: DIQMTQSPSTLSASVGDRVTITCRASQSIGSWLAWYQQKPGKAPKLLIYKASSLESGVPSRFSGSGSGTEFTLTISSLQPDDFATYYCQQSNSYYTFGGGTKVEIK
notes: as for B6
B9: ADI-27740 (antibody, V domains shown)
VH: B6 VH
VL: B8 VL with S91Y, N92H, Y94F
notes: named as a single clone only on the drawing sheets; also called A40
B10: ADI-28226 (antibody, V domains shown)
VH: B6 VH
VL: DIQMTQSPSTLSASVGDRVTITCRASQSISSWLAWYQQKPGKAPKLLIYKASSLESGVPSRFSGSGSGTEFTLTISSLQPDDFATYYCQQYGSFPITFGGGTKVEIK
notes: named as a single clone only on the drawing sheets; also called C26

Assays:
[1] = target: T1, soluble mouse Fc-human NKG2D dimer; test: SPR, mAb captured by anti-hFc, 37C
Procedure: Kinetics and affinity of various NKG2D-binding domains were assessed by surface plasmon resonance using Biacore 8K instrument (GE Healthcare). Anti-human Fe antibody was immobilized on a CM5 chip using standard amine coupling chemistry. Human monoclonal antibodies containing various NKG2D-binding domains were captured on the anti-human Fc chip at a density of approximately 100 RU. […] Surfaces were regenerated between cycles by quick injection of 10 mM glycine, pH 1.8. To obtain kinetic rate constants, double-referenced data were fit to a 1:1 interaction model using Biacore 8K Evaluation software (GE Healthcare). The equilibrium binding constant KD was determined by the ratio of dissociation constant kd and association constant kₐ (kd/kₐ).

[2] = target: T2, human CEACAM5 on cells; test: flow cytometry, LoVo cells
[3] = target: T2, human CEACAM5 on cells; test: flow cytometry, BxPC-3 cells
[4] = target: T2, human CEACAM5 on cells; test: flow cytometry, MKN-45 cells
[5] = target: T2, human CEACAM5 on cells; test: flow cytometry, SK-CO-1 cells
[6] = target: T2, human CEACAM5 on cells; test: flow cytometry, Kato-III cells
[7] = target: T3, human NKG2D-Fc; test: ELISA on plate-adsorbed recombinant human NKG2D-Fc, anti-human kappa-HRP, OD 450 nm
Description: (§1) The nucleic acid sequences of human, mouse or cynomolgus NKG2D ectodomains were fused with nucleic acid sequences encoding human IgG1 Fc domains and introduced into mammalian cells to be expressed. After purification, NKG2D-Fc fusion proteins were adsorbed to wells of microplates. After blocking the wells with bovine serum albumin to prevent non-specific binding, NKG2D-binding domains were titrated and added to the wells pre-adsorbed with NKG2D-Fc fusion proteins. Primary antibody binding was detected using a secondary antibody which was conjugated to horseradish peroxidase and specifically recognizes a human kappa light chain to avoid Fc cross-reactivity. 3,3′,5,5′-Tetramethylbenzidine (TMB), a substrate for horseradish peroxidase, was added to the wells to visualize the binding signal, whose absorbance was measured at 450 nm and corrected at […]. An NKG2D-binding domain clone, an isotype control or a positive control (comprising heavy chain and light chain variable domains selected from the group consisting of: SEQ ID NOs: 526-529, or anti-mouse NKG2D clones MI-6 and CX-5 available at eBioscience) was added to each well.

[8] = target: T4, mouse NKG2D-Fc; test: ELISA on plate-adsorbed recombinant mouse NKG2D-Fc, anti-human kappa-HRP, OD 450 nm
Description: as §1

[9] = target: T5, cynomolgus NKG2D-Fc; test: ELISA on plate-adsorbed recombinant cynomolgus NKG2D-Fc, anti-human kappa-HRP, OD 450 nm
Description: as §1

[10] = target: T3, human NKG2D-Fc; test: competition ELISA on plate-adsorbed human NKG2D-Fc; blocked ligand ULBP-6-His-biotin
Procedure: Recombinant human NKG2D-Fc proteins were adsorbed to wells of a microplate, and the wells were blocked with bovine serum albumin to reduce non-specific binding. A saturating concentration of ULBP-6-His-biotin was added to the wells, followed by addition of the NKG2D-binding domain clones. After a 2-hour incubation, wells were washed and ULBP-6-His-biotin that remained bound to the NKG2D-Fc coated wells was detected by streptavidin-conjugated to horseradish peroxidase and TMB substrate. Absorbance was measured at 450 nm and corrected at […]. After subtracting background, specific binding of NKG2D-binding domains to the NKG2D-Fc proteins was calculated from the percentage of ULBP-6-His-biotin that was blocked from binding to the NKG2D-Fc proteins in wells.

Binder	Kd [1] [nM]	koff [1] [s⁻¹]	kon [1] [M⁻¹ s⁻¹]	EC50 (read off the curve) [7] [nM]	binding result [8]	binding result [9]	further results
B1	50.7	0.0225	443000				
B2	58.5	0.0487	832000				
B3							EC50 [2]: 2.71 nM; Max FOB [2]: 7 fold over background; EC50 [3]: 3.37 nM; Max FOB [3]: 5 fold over background; EC50 [4]: 4.69 nM; Max FOB [4]: 23 fold over background; EC50 [5]: 5.84 nM; Max FOB [5]: 14 fold over background; EC50 [6]: 1.16 nM; Max FOB [6]: 3 fold over background
B4	10.1	0.00299	295000				
B5	12.4	0.00489	395000				
B6				~0.6	binds	binds	
B7				~10			EC50 (read off the curve) [8]: ~8 nM; EC50 (read off the curve) [9]: ~8 nM
B8					binds	binds	binding result [7]: binds
B9				~0.3			EC50 (read off the curve) [8]: ~0.2 nM; EC50 (read off the curve) [9]: ~0.3 nM; IC50 (read off the curve) [10]: ~6 nM
B10					binds	binds	binding result [7]: binds
